Reference: publication PMC2063867 (The Journal of Cell Biology, 2006)

B1: FLAG-GIT1 (expressed in CHO-K1 cells) (natural protein)
chain: MSRKGPRAEVCADCSAPDPGWASISRGVLVCDECCSVHRSLGRHISIVKHLRHSAWPPTLLQMVHTLASNGANSIWEHSLLDPAQVQSGRRKANPQDKVHPIKSEFIRAKYQMLAFVHKLPCRDDDGVTAKDLSKQLHSSVRTGNLETCLRLLSLGAQANFFHPEKGTTPLHVAAKAGQTLQAELLVVYGADPGSPDVNGRTPIDYARQAGHHELAERLVECQYELTDRLAFYLCGRKPDHKNGHYIIPQMADSLDLSELAKAAKKKLQALSNRLFEELAMDVYDEVDRRENDAVWLATQNHSTLVTERSAVPFLPVNPEYSATRNQGRQKLARFNAREFATLIIDILSEAKRRQQGKSLSSPTDNLELSLRSQSDLDDQHDYDSVASDEDTDQEPLRSTGATRSNRARSMDSSDLSDGAVTLQEYLELKKALATSEAKVQQLMKVNSSLSDELRRLQREIHKLQAENLQLRQPPGPVPTPPLPSERAEHTPMAPGGSTHRRDRQAFSMYEPGSALKPFGGPPGDELTTRLQPFHSTELEDDAIYSVHVPAGLYRIRKGVSASAVPFTPSSPLLSCSQEGSRHTSKLSRHGSGADSDYENTQSGDPLLGLEGKRFLELGKEEDFHPELESLDGDLDPGLPSTEDVILKTEQVTKNIQELLRAAQEFKHDSFVPCSEKIHLAVTEMASLFPKRPALEPVRSSLRLLNASAYRLQSECRKTVPPEPGAPVDFQLLTQQVIQCAYDIAKAAKQLVTITTREKKQ
B2: phospho–S273-paxillin (untagged WT-paxillin synthesized in vitro and incubated with CA-myc-PAK1) (natural protein)
chain: not shown
modifications: phosphoserine at 273

How the values were obtained:
Test in all cases: co-IP
[1] = target: S273A-paxillin-GFP (UniProt P49024 1-559, S273A)
Chain of S273A-paxillin-GFP (P49024 whole entry S273A): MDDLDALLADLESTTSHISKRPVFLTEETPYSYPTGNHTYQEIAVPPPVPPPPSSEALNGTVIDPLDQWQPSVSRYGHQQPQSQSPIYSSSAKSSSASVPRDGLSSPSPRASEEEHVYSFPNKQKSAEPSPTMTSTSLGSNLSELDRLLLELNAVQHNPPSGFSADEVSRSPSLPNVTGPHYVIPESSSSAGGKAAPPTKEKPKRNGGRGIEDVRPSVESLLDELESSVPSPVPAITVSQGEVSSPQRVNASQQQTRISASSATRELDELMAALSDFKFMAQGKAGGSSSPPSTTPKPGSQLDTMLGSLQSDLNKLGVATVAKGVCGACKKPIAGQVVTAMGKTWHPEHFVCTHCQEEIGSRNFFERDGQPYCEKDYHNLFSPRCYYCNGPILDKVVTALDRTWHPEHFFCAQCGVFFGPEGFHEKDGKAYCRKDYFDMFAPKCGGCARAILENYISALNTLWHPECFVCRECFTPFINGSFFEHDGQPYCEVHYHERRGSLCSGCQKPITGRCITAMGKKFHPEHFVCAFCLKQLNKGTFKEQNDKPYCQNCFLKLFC

[2] = target: S273D-paxillin-GFP (UniProt P49024 1-559, S273D)
Chain of S273D-paxillin-GFP (P49024 whole entry S273D): as the sequence (P49024 whole entry S273A) above, with A273D counted along it

[3] = target: T1, FLAG-GIT1 (synthesized in vitro) (UniProt Q9Y2X7 1-761)
T1 sequence: B1 chain

Row | Binder | fold decrease of GIT1 binding against WT-paxillin [1] [fold] | fold increase of GIT1 binding against WT-paxillin [2] [fold] | fold increase of phospho–S273-paxillin bound to FLAG-GIT1 with CA- versus KD-PAK [3] [fold]
1 | B1 | 2 | ~3 | 
2 | B2 |  |  | 7
